Measured values: patent US20220356235A1 (STICHTING SANQUIN BLOEDVOORZIENING, published 2022)

Assays:
C3b [1] = biological target: T1, C3b (UniProt P01024 23-667; P01024 749-1663, limits assumed); assay: SPR on immobilised C3b, FH with Fab′ against FH alone
T1 construct: C3b has two chains (beta and alpha') derived from C3; also called purified C3b (Complement Technologies)
Experimental: (§1) Binding of FH to C3b in the presence of the anti-FH moAbs was determined by surface plasmon resonance using a Biacore T200 instrument (GE Healthcare, Little Chalfont, UK). Purified C3b (Complement Technologies) was immobilized onto a flow cell of a CM5 Biacore Sensor Chip (GE Healthcare) using standard amine coupling. The remaining flow cell was used as reference surface and prepared by performing a coupling reaction without the addition of any protein. A response of 2000 response units (RUs) was obtained after coupling with C3b. SPR experiments were performed at 37° C. using a flow rate of 10 μl/min and in phosphate buffered saline pH 7.4 (PBS, Orphi Farma) supplemented with 0.01% (w/v) Tween-20 (Merck) (PBS-T).
(§2) To determine the effect of the antibodies without interference of possible cross-linking via the moAb, recombinantly produced Fab′ fragments of the moAbs were used. Fab′ fragments were mixed with plasma purified FH (pdFH). […] Each Fab′ fragment was also injected without addition of FH to determine any interactions of the Fab′ fragments with the surfaces. The pdFH injection was followed by a dissociation of 60 seconds and surface was regenerated between each cycle by a single injection of 1 M NaCl (Merck).

C3b [2] = biological target: T1, C3b; assay: SPR, C3b amine-coupled to CM5 chip, FH (5-0.01953 µM) injected with 10 µM anti-FH.07 Fab′, equilibrium analysis; FH with anti-FH.07 Fab′
Experimental: as §1, §2
(§3) Data was analyzed using Scrubber 2 (Biologic Software) affinities were determined by equilibrium analysis.

C3b [3] = biological target: T1, C3b; assay: SPR on immobilised C3b, equilibrium analysis, FH with Fab′ against FH alone
Experimental: as §1, §2

C3b [4] = biological target: T1, C3b; assay: SPR, C3b amine-coupled to CM5 chip, FH (5-0.01953 µM) injected with 10 µM anti-FHR-1 3B4 Fab′, equilibrium analysis; FH with anti-FHR-1 3B4 Fab′
Experimental: as §1, §2, §3

[5] = biological target: T2, recombinant human FH fragment CCP 19-20 (human, UniProt P08603 1107-1231); assay: competition ELISA: mAb captured on RM-19 coated plate, FH-bt mixed with unlabelled CCP 19-20
T2 construct: domain: CCP 19-20
T2 sequence (looked up): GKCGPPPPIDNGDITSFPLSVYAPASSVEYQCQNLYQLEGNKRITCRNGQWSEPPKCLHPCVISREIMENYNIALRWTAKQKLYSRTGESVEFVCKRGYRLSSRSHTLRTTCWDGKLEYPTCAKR
Experimental: The location of the epitope of anti-FHR-1 mAbs was determined using recombinant human FH fragments composed of multiple CCP domains (15-18, 15-19, 18-20 or 19-20). In short, anti-FHR-1 mAbs were captured on a RM-19 coated microtiterplate to assure optimal binding conformation. Next, biotinylated FH, mixed with a 100-fold higher concentration of the indicated unlabeled recombinant FH-fragments, was incubated on the plate for 1 hour. Binding of biotinylated FH was determined by incubation with 0.01% (v/v) streptavidin conjugated with poly-HRP, in HPE for 30 min. The ELISA was further developed as described above. To determine whether the anti-FHR-1 mAbs competed with anti-FH.07 for the binding of FH, a similar set-up was used. In short, mAbs were directly coated to the plate and binding of biotinylated FH (FH-bt) in the absence or presence of a 10-fold higher concentration of indicated mAbs was assessed by ELISA as described above.

[6] = biological target: T3, recombinant human FH fragment CCP 18-20 (human, UniProt P08603 1046-1231); assay: SPR (Biacore T200), mAb captured on ProtA or ProtG chip, FH CCP18-20 flowed over, 1:1 model
T3 construct: domain: CCP 18-20; also called fragment of FH comprised of domain 18-20
T3 sequence (looked up): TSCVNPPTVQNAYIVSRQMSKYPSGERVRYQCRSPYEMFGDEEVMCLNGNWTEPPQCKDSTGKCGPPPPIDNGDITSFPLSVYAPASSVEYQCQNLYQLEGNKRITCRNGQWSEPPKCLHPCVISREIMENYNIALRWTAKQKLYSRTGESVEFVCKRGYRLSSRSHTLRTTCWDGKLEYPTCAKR
Experimental: (§4) Surface plasmon resonance (SPR) experiments were performed using a BiaCore T200 (GE Healthcare) and CM5 sensor chips (GE Healthcare) in accordance with the manufacturer's instructions. In short, to determine its affinity, anti-FH.07, anti-FHR-1 3B4 or anti-FHR-1 8E4 were captured onto a ProtA or ProtG coupled chip and either full length FH or a fragment of FH comprising domain 18-20 was flown over the captured moAB at decreasing concentrations.

[7] = biological target: T4, human factor H, full length (human, UniProt P08603 19-1231); assay: cell-based or functional assay
[8] = biological target: T3, recombinant human FH fragment CCP 18-20; assay: SPR, mAb captured, FH CCP18-20 flowed over (fuller figure of the value rounded to 0.03 × 10^-9 in Table 2)
Experimental: as §4

[9] = biological target: T4, human factor H, full length; assay: SPR (Biacore T200), mAb captured on ProtA or ProtG chip, full length FH flowed over, 1:1 model
Experimental: as §4

C3b [10] = biological target: T1, C3b; assay: SPR, C3b amine-coupled to CM5 chip, FH (5-0.01953 µM) injected with 10 µM anti-FHR-1 8E4 Fab′, equilibrium analysis; FH with anti-FHR-1 8E4 Fab′
Experimental: as §1, §2

T1 sequence (P01024 23-667 limits assumed, chain 1 of 2): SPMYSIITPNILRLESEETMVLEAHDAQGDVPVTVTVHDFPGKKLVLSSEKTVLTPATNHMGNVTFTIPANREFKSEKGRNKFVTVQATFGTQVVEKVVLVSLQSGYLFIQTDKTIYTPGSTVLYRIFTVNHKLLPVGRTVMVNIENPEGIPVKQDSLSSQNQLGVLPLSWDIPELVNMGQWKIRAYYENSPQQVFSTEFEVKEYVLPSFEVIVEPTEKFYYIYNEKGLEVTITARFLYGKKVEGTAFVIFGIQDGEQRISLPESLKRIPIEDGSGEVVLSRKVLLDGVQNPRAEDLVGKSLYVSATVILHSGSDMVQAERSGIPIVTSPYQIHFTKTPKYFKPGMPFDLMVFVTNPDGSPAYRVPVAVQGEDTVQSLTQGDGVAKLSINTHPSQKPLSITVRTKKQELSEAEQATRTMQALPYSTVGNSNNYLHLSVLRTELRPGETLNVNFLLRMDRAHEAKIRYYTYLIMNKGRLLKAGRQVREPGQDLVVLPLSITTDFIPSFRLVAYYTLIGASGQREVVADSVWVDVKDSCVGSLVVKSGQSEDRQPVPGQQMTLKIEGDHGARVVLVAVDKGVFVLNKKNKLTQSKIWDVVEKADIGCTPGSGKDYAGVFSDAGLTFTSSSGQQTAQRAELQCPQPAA
T1 sequence (P01024 749-1663 limits assumed, chain 2 of 2): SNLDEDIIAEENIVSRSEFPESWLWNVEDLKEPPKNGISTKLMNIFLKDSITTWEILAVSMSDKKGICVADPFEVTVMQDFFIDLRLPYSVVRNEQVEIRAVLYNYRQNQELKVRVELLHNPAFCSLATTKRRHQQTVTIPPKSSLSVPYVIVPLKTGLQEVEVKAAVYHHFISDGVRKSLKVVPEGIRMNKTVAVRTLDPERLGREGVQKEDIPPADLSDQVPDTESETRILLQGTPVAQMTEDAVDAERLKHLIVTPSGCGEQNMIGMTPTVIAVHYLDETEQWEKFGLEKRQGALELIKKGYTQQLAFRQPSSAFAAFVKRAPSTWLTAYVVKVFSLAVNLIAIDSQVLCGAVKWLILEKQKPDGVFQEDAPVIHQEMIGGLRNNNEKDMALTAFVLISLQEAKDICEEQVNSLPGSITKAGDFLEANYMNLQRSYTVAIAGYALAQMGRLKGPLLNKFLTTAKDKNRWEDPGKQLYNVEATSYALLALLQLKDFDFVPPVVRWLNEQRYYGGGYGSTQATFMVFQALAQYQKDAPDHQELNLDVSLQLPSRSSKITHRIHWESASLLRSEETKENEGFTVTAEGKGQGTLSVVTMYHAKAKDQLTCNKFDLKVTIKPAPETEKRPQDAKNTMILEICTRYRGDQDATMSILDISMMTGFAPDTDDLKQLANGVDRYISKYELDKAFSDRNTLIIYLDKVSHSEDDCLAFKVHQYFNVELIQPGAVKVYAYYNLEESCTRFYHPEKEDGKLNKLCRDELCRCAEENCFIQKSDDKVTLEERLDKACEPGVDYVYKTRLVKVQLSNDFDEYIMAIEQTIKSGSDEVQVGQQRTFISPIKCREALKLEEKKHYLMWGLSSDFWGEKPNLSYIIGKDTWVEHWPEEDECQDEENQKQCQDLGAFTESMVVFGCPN

B1: FH complexed with anti-FH.07 Fab′ fragment (other, human)
chain: EDCNELPPRRNTEILTGSWSDQTYPEGTQAIYKCRPGYRSLGNVIMVCRKGEWVALNPLRKCQKRPCGHPGDTPFGTFTLTGGNVFEYGVKAVYTCNEGYQLLGEINYRECDTDGWTNDIPICEVVKCLPVTAPENGKIVSSAMEPDREYHFGQAVRFVCNSGYKIEGDEEMHCSDDGFWSKEKPKCVEISCKSPDVINGSPISQKIIYKENERFQYKCNMGYEYSERGDAVCTESGWRPLPSCEEKSCDNPYIPNGDYSPLRIKHRTGDEITYQCRNGFYPATRGNTAKCTSTGWIPAPRCTLKPCDYPDIKHGGLYHENMRRPYFPVAVGKYYSYYCDEHFETPSGSYWDHIHCTQDGWSPAVPCLRKCYFPYLENGYNQNYGRKFVQGKSIDVACHPGYALPKAQTTVTCMENGWSPTPRCIRVKTCSKSSIDIENGFISESQYTYALKEKAKYQCKLGYVTADGETSGSITCGKDGWSAQPTCIKSCDIPVFMNARTKNDFTWFKLNDTLDYECHDGYESNTGSTTGSIVCGYNGWSDLPICYERECELPKIDVHLVPDRKKDQYKVGEVLKFSCKPGFTIVGPNSVQCYHFGLSPDLPICKEQVQSCGPPPELLNGNVKEKTKEEYGHSEVVEYYCNPRFLMKGPNKIQCVDGEWTTLPVCIVEESTCGDIPELEHGWAQLSSPPYYYGDSVEFNCSESFTMIGHRSITCIHGVWTQLPQCVAIDKLKKCKSSNLIILEEHLKNKKEFDHNSNIRYRCRGKEGWIHTVCINGRWDPEVNCSMAQIQLCPPPPQIPNSHNMTTTLNYRDGEKVSVLCQENYLIQEGEEITCKDGRWQSIPLCVEKIPCSQPPQIEHGTINSSRSSQESYAHGTKLSYTCEGGFRISEENETTCYMGKWSSPPQCEGLPCKSPPEISHGVVAHMSDSYQYGEEVTYKCFEGFGIDGPAIAKCLGEKWSHPPSCIKTDCLSLPSFENAIPMGEKKDVYKAGEQVTYTCATYYKMDGASNVTCINSRWTGRPTCRDTSCVNPPTVQNAYIVSRQMSKYPSGERVRYQCRSPYEMFGDEEVMCLNGNWTEPPQCKDSTGKCGPPPPIDNGDITSFPLSVYAPASSVEYQCQNLYQLEGNKRITCRNGQWSEPPKCLHPCVISREIMENYNIALRWTAKQKLYSRTGESVEFVCKRGYRLSSRSHTLRTTCWDGKLEYPTCAKR
VH: QVQLQQSGPGLVQPSQSLSITCTVSDFSLARYGVHWIRQSPGKGLEWLGVIWSGGTADYNAAFISRLNINKDNSKSQVFFKMNSLQANDTAIYYCARNFGNYAVDYWGQGTS
VL: QIVLSQSPTFLSASPGEKVTVTCRASSSVKYMHWYQQKPGASPKPWIFATSNLASGVPARFSGSGSGTSYSLTISRVEAEDAATYYCQQWSIIPPTFGNGTKLELK
notes: mature; also called FH in presence of 10 µM anti-FH.07 Fab′
C3b [1]
  fold increase of measured RU against FH alone: ≥ 2 fold
C3b [2]
  Kd: 2200 nM
C3b [3]
  increase in affinity of FH for C3b against FH alone (times): 2.7 times

B2: FH complexed with anti-FHR-1 3B4 Fab′ fragment (other, human)
chain: B1 chain
VH: QVQLRQSGPGLVQPSQSLSITCTVSGFSLTNYGVYWVRQSPGKGLEWLGVIWSGGTTDYSAAFISRLSISKDNSKSQVFFKMNSLQADDTAIYYCARNFGNYAMDYWGQGTSVTVSS
VL: QIVLSQSPTILSASPGEKVTMTCRASSSVTYMHWYQQKPGSSPKPWIYATSNLASGVPARFSGSGSGTSYSLTISRVEAEDAATYYCQQRSSSNPLTFGAGTKLELK
notes: mature; also called FH in presence of 10 µM anti-FHR-1 3B4 Fab′
C3b [1]
  fold increase of measured RU against FH alone: ≥ 2 fold
C3b [4]
  Kd: 1900 nM
C3b [3]
  increase in affinity of FH for C3b against FH alone (times): 3.2 times

B3: anti-FHR-1.8E4 (antibody, V domains shown)
VH: QVQLKQSGPGLVQPSQSLSITCTVSDFSLTNSGVHWVRQSPGKGLEWLGVIWSGGTTEYNAAFMSRLTITKDNSKSQVFFKMNSLLVDDTGIYYCARNFGNYAVDYWGQGTSVTVSS
VL: QIVLSQSPAILSASPGEKVTMTCRASSSVRYMHWYQQKAGSSPTAWIFATSNLASGVPPRFSGSGSGTSYSLTISRVEAEDAATYYCQQWGTKPPTFGAGTKLELK
notes: Mouse monoclonal from a hybridoma, raised against recombinant human FHR-1; also called aFHR-1 8E4
[5]
  binding result: no binding
[6]
  Kd: 0.03 nM
  koff: 4.96e-05 s⁻¹
  kon: 1.58e+06 M⁻¹ s⁻¹
[7]
  IC50 (nM), Hemolytic assay: 128 nM
  IC50 (nM), LPS C3b dep. assay: 26.3 nM
[8]
  Kd: 0.0313 nM
[9]
  Kd: 10.4 nM
  koff: 9.39e-05 s⁻¹
  kon: 9000 M⁻¹ s⁻¹

B4: FH complexed with anti-FHR-1 8E4 Fab′ fragment (other, human)
chain: B1 chain
VH: B3 VH
VL: B3 VL
notes: mature; also called FH in presence of 10 µM anti-FHR-1 8E4 Fab′
C3b [1]
  fold increase of measured RU against FH alone: ≥ 2 fold
C3b [3]
  increase in affinity of FH for C3b against FH alone (times): 3.6 times
C3b [10]
  Kd: 1660 nM
